Reference: publication doi:10.1101/2020.06.17.153486

Key:
[1] = target: SARS-CoV-2 spike trimer (S trimer), soluble ectodomain (SARS-CoV-2) (UniProt P0DTC2); assay: cryo-EM structure
[2] = target: SARS-CoV-2 spike trimer (S trimer), soluble ectodomain (SARS-CoV-2, Wuhan-Hu-1 type); assay: cryo-EM structure

Row | Substance | stoichiometry N (Fab per trimer) [1] | stoichiometry N (Fab per trimer) [2]
1 | 2-43 Fab | 3 | 
2 | 4-8 Fab |  | 3
